Target: CH505 transmitted founder gp120 (HIV-1 CH505 transmitted/founder, UniProt M4M3Q1, strain)
Assay: SPR
Conditions: both partners purified

Binder | binding result
DH753 monoclonal antibody (IgG1) (antibody, V domains shown, copies: 2 + 2) VH: EVHLVESGGGLVQPGGSLRLSCEVSGLTFSNSWMSWVRQAPGKGLEWVGFIKTKADGGTAAYAESVKGRFTISRDDSKNTVFLQMKSLKTEDTAVYYCQGAVVISHEYIEIWGQGALVTVSS VL: QSVLTQPPSASEAARKSVTISCSGGSSNIGDDSVSWYQQVPGTAPKLLIYYNDRRASGVSDRFSGSKSGTSASLAINGLQSEDEADYYCAAWDDSLSAYIFGSGTRLTVL | binds
DH727.2 monoclonal antibody (IgG1) (antibody, V domains shown, copies: 2 + 2) VH: QVQLVQSGAEVKKPGASVKLSCKASGNTFSIYGISWVRQAPGQGLEWMGGIIPPAGLTNYVQRFQGRVTITADTSTTTVYMELSSLTSEDTAVYYCAIRIGRGFDYWGQGVLVTVSS VL: DIVMTQSPLSLPVTPGETASISCRSSQSLLDSEDGNTYLEWYLQKPGQSPQALIYEASNRASGVPDRFSGSGSDTDFTLKISRVEAEDVGIYYCMQTIEYPFTFGPGTKVDIK | binds
